For experiment [1], the system named is E. coli lacking EPSPS. Nature of the experiment: Resistance test of soybean EPSPS mutant and comparison with wild type (FIG. 4). Type of experiment: cell-based. Conditions: 0.5 mM glyphosate. The text has this: According to the wild-type sequence information of soybean (Glycine max) EPSPS (SEQ ID NO:36), the gene was synthesized and inserted into the vector pKED2 to obtain the vector GmWt. The V403 site of GmWt was mutated to A by PCR, and the vector GmVA expressing the soybean EPSPS mutant protein containing the V403A mutation was obtained. The specific experimental steps were as following:
(§1) a) PCR system: According to the primer and template mixed PCR system corresponding to the target vector in the above table, the forward primer was 1.25 μl, the reverse primer was 1.25 μl, the template plasmid was 2 μl, the Q5 PCR master mix was 12.5 μl, and ddH2O was […].
(§2) b) PCR reaction conditions were as follows: the annealing temperature was set according to the annealing temperature corresponding to the target carrier in the above table.
(§3) c) Took out 5 μl of the obtained PCR product and added it to the loading buffer for agarose gel electrophoresis. A band with a size of about 4.5 kb was considered successful.
(§4) d) Used NEB's KLD enzyme mixture to remove the template and connected the PCR product. The connection system was 5 μl KLD buffer, 1 μl KLD MIX, 1 μl PCR product, and ddH2O 3 μl. After ligating at room temperature for 5 min, transformed it into E. coli.
e) The ligation product was transformed into Dh5a competent E. coli lacking EPSPS. […]

The subject of experiment [2] is E. coli lacking EPSPS. Nature of the experiment: Glyphosate resistance comparison among rice EPSPS mutants: growth of transformed E. coli on M9 medium with different glyphosate concentrations. Type of experiment: cell-based, Escherichia coli. Particulars: M9 medium; for glyphosate concentration of the medium on which the strain can grow: tested 0, 0.5, 2, 4, 5, 25, 75, 100 mM glyphosate, FIG. 2, FIG. 3. As to the method:
as §1
b) PCR reaction conditions were as following: the annealing temperature was set according to the annealing temperature corresponding to the target carrier in the above table.
as §3, §4
(§5) e) The ligation product was transformed into Dh5a competent E. coli lacking EPSPS. After resuscitation, the cells were washed twice with M9 medium, and then the washed cells were spread on M9 medium and cultured for 48 h. Sequenced the grown single colony (Tsingke Biological Technology Co., Ltd.), and selected the correct mutant to save for future use.
OsWt represents the wild type rice EPSPS(SEQ ID NO:2). […] OsGA represents the mutated rice EPSPS with mutation G172A. (SEQ ID NO:7) OsPS represents the mutated rice EPSPS with mutation P177S. (SEQ ID NO:8) OsGAPS represents the mutated rice EPSPS with mutation G172A and P177S. (SEQ ID NO:9) OsGAVA represents the mutated rice EPSPS with mutation G172A and V403A(SEQ ID NO:4). OsPSVA represents the mutated rice EPSPS with mutation P177S and V403A(SEQ ID NO:5). OsGPV represents the mutated rice EPSPS with mutation G172A, P177S and V403A(SEQ ID NO:6). OsTIPS represents the mutated rice EPSPS with mutation T173I and P177S. (SEQ ID NO: 35). OsTIPT represents the mutated rice EPSPS with mutation T173I and P177T. (SEQ ID NO:36). OsTIPSVA represents the mutated rice EPSPS with mutation T173I, P177S and V403A. (SEQ ID NO:37). OsTIPTVA represents the mutated rice EPSPS with mutation T173I, P177T and V403A. (SEQ ID NO:38). CP4 represents the wild type EPSPS from Agrobacterium tumefaciens. (SEQ ID NO:39)
Each product obtained from the above steps were transformed into E. coli lacking EPSPS. By detecting the growth of the transformed Escherichia coli on M9 medium containing different glyphosate concentrations (0 mM, 0.5 mM, 2 mM, 4 mM, 5 mM, 25 mM, 75 mM, 100 mM), the 1 mM glyphosate here was equivalent to […] glyphosate acid, the glyphosate resistance of rice EPSPS mutants was verified.

Experiment [3] has as its system E. coli lacking EPSPS. Nature of the experiment: Resistance test of flax EPSPS V403A mutant and comparison with wild type (FIG. 4). Type of experiment: cell-based. Particulars: presence of 1 mM and 2 mM glyphosate. The protocol:
The flax (Linum usitatissimum) EPSPS mutant sequence(SEQ ID NO: 27) was synthesized and cloned into the pKED2 vector to obtain the vector LuVA. The vector LuWt was created after introducing A403V mutation by PCR.
as §1, §2, §3
d) Used NEB's KLD enzyme mixture to remove the template and then connected the PCR product. The connection system was 5 μl KLD buffer, 1 μl KLD MIX, 1 μl PCR product, and ddH2O 3 μl. After ligating at room temperature for 5 min, transformed it into E. coli.
e) The ligation product was transformed into Dh5a competent E. coli lacking EPSPS. After resuscitation, the cells were washed twice with M9 medium, and then the washed cells were spread on M9 medium and cultured for 48 h. […]

The subject of experiment [4] is E. coli lacking EPSPS. The experiment in a line: Resistance identification of flax EPSPS mutants LuGPV, LuTIPT, LuTIPTVA (FIG. 5, FIG. 6). Type of experiment: cell-based.
Description: The G172 position and P177 position of LuVA were mutated into A and S at the same time by PCR, and a 3-point mutant LuGPV was obtained.
The T173 and P177 positions of LuWT were simultaneously mutated to I and T by PCR, and a […] mutant LuTIPT was obtained.
The T173 and P177 positions of LuVA were simultaneously mutated to I and T by PCR, and a 3-point mutant LuTIPTVA was obtained.
as §1, §2, §3, §4, §5
The resistance results were shown in FIG. 5: LuWt(SEQ ID NO:26) represents the EPSPS2 gene of flax, LuGPV (SEQ ID NO:30) represents the flax G172A+P177S+V403A three-point mutant. The resistance results were shown in FIG. 6: LuTIPT (SEQ ID NO:28) was the flax T173I+[…] double-point mutants, LuTIPTVA (SEQ ID NO:29) was flax T173I+P177T+V403A three-point mutants.

Residue numbers refer to the chain shown, from its start. Several values for one entry are separate records, joined by “and”; a condition that tells them apart may be missing. Equal values may be shown once.

B1: GmVA (protein)
DNA: MAAAEKPSTAPEIVLEPIKDISGTITLPGSKSLSNRILLLAALSEGTTVVDNLLYSEDIHYMLGALRTLGLRVEDDQTTKQAIVEGCGGLFPTIKESKDEINLFLGNAGTAMRPLTAAVVAAGGNASYVLDGVPRMRERPIGDLVAGLKQLGADVDCFLGTNCPPVRVNGKGGLPGGKVKLSGSISSQYLTALLMAAPLALGDVEIEIVDKLISVPYVEMTLKLMERFGVSVEHSGNWDKFLVHGGQKYKSPGNAFVEGDASSASYFLAGAAVTGGTITVNGCGTNSLQGDVKFAEVLEKMGAKVTWSENSVTVTGPPQDSSGQKVLQGIDVNMNKMPDAAMTLAVVALFANGQTAIRDVASWRVKETERMIAICTELRKLGATVEEGPDYCVITPPEKLNVTAIDTYDDHRMAMAFSLAACGDVPVTIKDPGCTRKTFPDYFEVLERFTRH
modifications: This sequence is synthesized in lab.
Regarding B1, the “growth status compared with GmWt” value with E. coli lacking EPSPS [1] is listed as “significantly higher than that of GmWt”.

B2: OsGAPS (protein)
chain: MAAKAEEIVLQPIREISGAVQLPGSKSLSNRILLLSALSEGTTVVDNLLNSEDVHYMLEALKALGLSVEADKVAKRAVVVGCGGKFPVEKDAKEEVQLFLGNAATAMRSLTAAVTAAGGNATYVLDGVPRMRERPIGDLVVGLKQLGADVDCFLGTECPPVRVKGIGGLPGGKVKLSGSISSQYLSALLMAAPLALGDVEIEIIDKLISIPYVEMTLRLMERFGVKAEHSDSWDRFYIKGGQKYKSPGNAYVEGDASSASYFLAGAAITGGTVTVQGCGTTSLQGDVKFAEVLEMMGAKVTWTDTSVTVTGPPREPYGKKHLKAVDVNMNKMPDVAMTLAVVALFADGPTAIRDVASWRVKETERMVAIRTELTKLGASVEEGPDYCIITPPEKLNITAIDTYDDHRMAMAFSLAACADVPVTIRDPGCTRKTFPNYFDVLSTFVRN
modifications: This sequence is synthesized in lab.
Regarding B2, in the experiment with E. coli lacking EPSPS [2] (0 mM glyphosate, complementation of E. coli EPSPS function), the “growth on medium containing 0 mM glyphosate” value was “cannot grow”.

B3: OsGAVA (protein)
chain: B2 chain with S109P, V335A
modifications: This sequence is synthesized in lab.
B3: the “glyphosate concentration of the medium on which the strain can grow” value (“glyphosate concentration of the medium” below) with E. coli lacking EPSPS [2] is reported as not above 75 mM.

B4: OsPSVA (protein)
chain: B2 chain with A103G, V335A
modifications: This sequence is synthesized in lab.
With B4, the “glyphosate concentration of the medium” value in the experiment on E. coli lacking EPSPS [2] is not above 4 mM.

B5: OsWt: wild type rice EPSPS (SEQ ID NO:2), chloroplast transit peptide removed (protein)
chain: B2 chain with A104G, S109P
modifications: This sequence is synthesized in lab.
Turning to B5, in the experiment on E. coli lacking EPSPS [2], the “growth on 0.5 mM glyphosate medium” value was “cannot grow”.

B6: OsPS (protein)
chain: B2 chain with A104G
modifications: This sequence is synthesized in lab.
With B6, the “growth on 0.5 mM glyphosate medium” value in the experiment on E. coli lacking EPSPS [2] is given as “can grow”.

B7: OsTIPTVA (protein)
chain: B2 chain with A104G, T105I, S109T, V335A
modifications: This sequence is synthesized in lab.
As to B7, in the experiment with E. coli lacking EPSPS [2], the “glyphosate concentration of the medium” value was 100 mM and 75 mM.

B8: OsGA (protein)
chain: B2 chain with S109P
modifications: This sequence is synthesized in lab.
As to B8, in the experiment on E. coli lacking EPSPS [2], the “growth on 0.5 mM glyphosate medium” value was “can grow”.

B9: LuVA (protein)
DNA: MTVPEEIVLQPIKDISGIVTLPGSKSLSNRILLLAALSEGKTVVDNLLNSDDVHYMLGALKTLGLNVEHSSEQKRAIVEGRGGVFPVGKLGKNDIELFLGNAGTAMRPLTAAVTAAGGNSSYILDGVPRMRERPIGDLVVGLKQLGADVSCSSTSCPPVHVNAKGGLPGGKVKLSGSISSQYLTALLMAAPLALGDVEIEIVDKLISVPYVDMTLKLMERFGVAVEHSGSWDRFFVKGGQKYKSPGNAYVEGDASSASYFLAGAAITGGTITVEGCGTSSLQGDVKFAEVLEKMGAKVTWTETSVTVTGPPRDASGKKHLRAVDVNMNKMPDAAMTLAVVALYADGPTAIRDVASWRVKETERMIAVCTELRKLGATVEEGPDYCIITPPEKLSIAEIDTYDDHRMAMAFSLAACADVPVTIRDPGCTKKTFPDYFEVLERYTKH
modifications: This sequence is synthesized in lab.
In the case of B9, the “growth status compared with LuWt” value with E. coli lacking EPSPS [3] was “significantly better than that of LuWt”.

B10: LuGPV (protein)
DNA: B9 DNA with G103A, P108S
modifications: This sequence is synthesized in lab.
For the molecule B10, the “resistance compared with CP4 (colony saturation)” value in the experiment with E. coli lacking EPSPS [4] (100 mM glyphosate pressure) is “higher than CP4”. Also, the glyphosate resistance entry with E. coli lacking EPSPS [4] (flax EPSPS mutant in E. coli, FIG. 5) was “strong glyphosate resistance”.

B11: LuTIPTVA (protein)
DNA: B9 DNA with T104I, P108T
modifications: This sequence is synthesized in lab.
As for B11, the “resistance compared with LuTIPT” value in the experiment with E. coli lacking EPSPS [4] (FIG. 6) was “higher than that of LuTIPT”.

For the origin of these results see patent US20250277196A1, “EPSPS MUTANTS AND METHOD OF ITS USES” (CROPEDIT BIOTECHNOLOGY INC., priority 2021, published 2025).
